# Laboratory results published in the supplement of paper PMC10065799, “High-throughput profiling of sequence recognition by tyrosine kinases and SH2 domains using bacterial peptide display” (eLife, 2023).
# System: c-Abl (mouse)
# Assay: phosphorylation enrichment, bacterial display (enrichment ratio); higher = better substrate or ligand; peptides without Tyr show the background
# 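Note: 11-residue human phosphosite peptides and single-mutation variants displayed on the E. coli surface, counted by deep sequencing, each peptide's frequency after selection divided by its frequency in the unselected input library; frequency after pTyr selection over input frequency; kinase dosed for 20-30% of maximal phosphorylation in three min.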
row,Sequence,phosphorylation enrichment
1,TCRPPYYHRNC [HGD_Y333_F329C],0.197

# Target: FGFR3 (UniProt P22607)
# Sequence (P22607 whole entry, looked up): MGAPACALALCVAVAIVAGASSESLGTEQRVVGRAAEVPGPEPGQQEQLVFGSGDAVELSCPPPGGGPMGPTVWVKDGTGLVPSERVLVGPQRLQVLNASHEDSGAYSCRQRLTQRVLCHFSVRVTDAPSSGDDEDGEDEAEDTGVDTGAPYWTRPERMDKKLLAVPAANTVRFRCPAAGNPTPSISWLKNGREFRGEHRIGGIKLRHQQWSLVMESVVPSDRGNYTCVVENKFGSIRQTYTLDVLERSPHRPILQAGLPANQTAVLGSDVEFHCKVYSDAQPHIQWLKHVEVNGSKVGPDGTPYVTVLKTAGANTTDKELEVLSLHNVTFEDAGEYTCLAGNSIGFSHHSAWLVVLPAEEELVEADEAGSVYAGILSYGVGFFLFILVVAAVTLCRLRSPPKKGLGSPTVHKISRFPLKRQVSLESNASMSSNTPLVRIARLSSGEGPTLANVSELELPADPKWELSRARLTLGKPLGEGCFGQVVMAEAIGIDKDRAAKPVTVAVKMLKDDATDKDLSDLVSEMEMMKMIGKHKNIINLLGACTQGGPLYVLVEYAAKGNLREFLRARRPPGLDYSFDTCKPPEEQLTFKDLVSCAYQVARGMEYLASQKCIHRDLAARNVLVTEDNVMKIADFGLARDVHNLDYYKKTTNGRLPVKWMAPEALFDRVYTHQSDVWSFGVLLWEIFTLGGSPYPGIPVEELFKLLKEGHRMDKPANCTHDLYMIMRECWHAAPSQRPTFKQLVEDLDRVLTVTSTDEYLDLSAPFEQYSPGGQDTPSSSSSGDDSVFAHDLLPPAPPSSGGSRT
# Assay: as above
row,Sequence,phosphorylation enrichment
1,AKRKNYAPVAM [CFAP47_Y557],0.371
2,FLQTDDTSQVS [FRMPD1_Y846_Y846D],0.645
3,RYVTRYIYNRE [HLA-DQB1_Y62],0.793
4,TGEKLYQHKEF [ZNF283_Y627_R629H],0.528
5,DFLSSYSAVNQ [OAT_Y85],0.698
6,PLQKTYNYNVL [SLC4A1_Y553],0.691
7,SAEEDYMADAK [KCNT1_Y876],0.843
8,LKALKYKSMKI [ITGA11_Y1098],0.619
9,LINSVYGCSRQ [TMPRSS6_Y290_T287N],0.974
10,FPHVISARLWR [SMAD4_Y95_Y95S],0.557
11,ELTSVYGSRAR [SENP1_Y349_D350G],0.583
12,YEREQYADRTR [RBM4_Y355_A359T],0.472
13,QKFMAYPSQGG [HLCS_Y236_L237P],0.484
14,LVMFIYAIFGM [SCN1A_Y1684],1.41
15,DGQVNYEEFVQ [CALM1_Y139],0.841
16,GSQERYFELVE [TSC2_Y407],0.826
17,FFRNVYHLASV [RBL1_Y796_K794N_YF],0.532
18,TKDTFYKQRMF [GBA_Y451_P454R],0.391
19,HKETGYVVERP [BCLAF1_Y466_L461H],0.656
20,PTTKTYLPHFD [HBA1_Y43_F44L],0.58
21,YRDALYKSMVD [PHEX_Y250_F252S],0.608
22,GVIRHYVVCST [BTK_Y334],0.813
23,SIKGKYVTALF [KCNH2_Y611_D609G_YF],0.449
24,GLGGGYGGASG [KRT8_Y54],0.367
25,TKYVAYIESQG [KDM4B_Y34_N29T],0.608
26,NVTGHYIPPFH [PPA2_Y59_S61P],0.463
27,LKSEMYQKLFK [RGS13_Y146_L150F],0.923
28,GTTIHYNYMCN [TP53_Y234_C229G],0.973
29,TCRPPYYHRNC [HGD_Y333_F329C],0.493

# Target: EPHB1 (UniProt P54762)
# Sequence (P54762 whole entry, looked up): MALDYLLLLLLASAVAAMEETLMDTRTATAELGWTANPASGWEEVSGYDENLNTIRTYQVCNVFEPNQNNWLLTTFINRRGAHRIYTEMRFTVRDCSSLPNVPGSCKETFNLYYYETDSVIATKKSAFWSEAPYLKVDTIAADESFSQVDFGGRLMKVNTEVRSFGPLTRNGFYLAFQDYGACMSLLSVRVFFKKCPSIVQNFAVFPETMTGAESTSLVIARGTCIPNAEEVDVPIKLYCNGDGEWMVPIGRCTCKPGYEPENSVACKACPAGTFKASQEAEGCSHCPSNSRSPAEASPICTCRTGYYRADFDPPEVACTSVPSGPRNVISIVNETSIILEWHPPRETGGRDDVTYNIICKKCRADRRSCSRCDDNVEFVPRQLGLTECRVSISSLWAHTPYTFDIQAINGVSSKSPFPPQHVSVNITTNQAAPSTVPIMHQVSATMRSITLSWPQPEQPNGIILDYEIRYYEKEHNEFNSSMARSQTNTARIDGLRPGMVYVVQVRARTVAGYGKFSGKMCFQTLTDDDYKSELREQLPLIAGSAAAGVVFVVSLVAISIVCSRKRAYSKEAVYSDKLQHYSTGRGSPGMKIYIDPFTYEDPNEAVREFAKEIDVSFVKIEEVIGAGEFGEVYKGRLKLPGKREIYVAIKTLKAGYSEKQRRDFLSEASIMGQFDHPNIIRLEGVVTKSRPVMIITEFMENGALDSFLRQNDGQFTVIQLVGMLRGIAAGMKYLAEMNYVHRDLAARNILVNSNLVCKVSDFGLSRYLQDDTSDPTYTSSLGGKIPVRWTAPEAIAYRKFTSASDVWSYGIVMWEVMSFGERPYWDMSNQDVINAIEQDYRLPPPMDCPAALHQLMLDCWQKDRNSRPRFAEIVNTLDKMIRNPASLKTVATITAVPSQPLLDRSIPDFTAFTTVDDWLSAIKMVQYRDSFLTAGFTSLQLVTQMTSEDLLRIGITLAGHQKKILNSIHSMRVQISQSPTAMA
# Assay: as above
row,Sequence,phosphorylation enrichment
1,AKRKNYAPVAM [CFAP47_Y557],0.648
2,FLQTDDTSQVS [FRMPD1_Y846_Y846D],0.632
3,RYVTRYIYNRE [HLA-DQB1_Y62],0.74
4,TGEKLYQHKEF [ZNF283_Y627_R629H],0.45
5,DFLSSYSAVNQ [OAT_Y85],0.658
6,PLQKTYNYNVL [SLC4A1_Y553],0.66
7,SAEEDYMADAK [KCNT1_Y876],0.733
8,LKALKYKSMKI [ITGA11_Y1098],0.299
9,LINSVYGCSRQ [TMPRSS6_Y290_T287N],1.01
10,FPHVISARLWR [SMAD4_Y95_Y95S],0.419
11,ELTSVYGSRAR [SENP1_Y349_D350G],0.378
12,YEREQYADRTR [RBM4_Y355_A359T],0.343
13,QKFMAYPSQGG [HLCS_Y236_L237P],0.388
14,LVMFIYAIFGM [SCN1A_Y1684],1.03
15,DGQVNYEEFVQ [CALM1_Y139],1.62
16,GSQERYFELVE [TSC2_Y407],0.577
17,FFRNVYHLASV [RBL1_Y796_K794N_YF],0.509
18,TKDTFYKQRMF [GBA_Y451_P454R],0.359
19,HKETGYVVERP [BCLAF1_Y466_L461H],0.475
20,PTTKTYLPHFD [HBA1_Y43_F44L],0.362
21,YRDALYKSMVD [PHEX_Y250_F252S],0.564
22,GVIRHYVVCST [BTK_Y334],0.68
23,SIKGKYVTALF [KCNH2_Y611_D609G_YF],0.519
24,GLGGGYGGASG [KRT8_Y54],0.376
25,TKYVAYIESQG [KDM4B_Y34_N29T],0.456
26,NVTGHYIPPFH [PPA2_Y59_S61P],0.455
27,LKSEMYQKLFK [RGS13_Y146_L150F],0.5
28,GTTIHYNYMCN [TP53_Y234_C229G],0.834

# Target: MERTK (UniProt Q12866)
# Sequence (Q12866 whole entry, looked up): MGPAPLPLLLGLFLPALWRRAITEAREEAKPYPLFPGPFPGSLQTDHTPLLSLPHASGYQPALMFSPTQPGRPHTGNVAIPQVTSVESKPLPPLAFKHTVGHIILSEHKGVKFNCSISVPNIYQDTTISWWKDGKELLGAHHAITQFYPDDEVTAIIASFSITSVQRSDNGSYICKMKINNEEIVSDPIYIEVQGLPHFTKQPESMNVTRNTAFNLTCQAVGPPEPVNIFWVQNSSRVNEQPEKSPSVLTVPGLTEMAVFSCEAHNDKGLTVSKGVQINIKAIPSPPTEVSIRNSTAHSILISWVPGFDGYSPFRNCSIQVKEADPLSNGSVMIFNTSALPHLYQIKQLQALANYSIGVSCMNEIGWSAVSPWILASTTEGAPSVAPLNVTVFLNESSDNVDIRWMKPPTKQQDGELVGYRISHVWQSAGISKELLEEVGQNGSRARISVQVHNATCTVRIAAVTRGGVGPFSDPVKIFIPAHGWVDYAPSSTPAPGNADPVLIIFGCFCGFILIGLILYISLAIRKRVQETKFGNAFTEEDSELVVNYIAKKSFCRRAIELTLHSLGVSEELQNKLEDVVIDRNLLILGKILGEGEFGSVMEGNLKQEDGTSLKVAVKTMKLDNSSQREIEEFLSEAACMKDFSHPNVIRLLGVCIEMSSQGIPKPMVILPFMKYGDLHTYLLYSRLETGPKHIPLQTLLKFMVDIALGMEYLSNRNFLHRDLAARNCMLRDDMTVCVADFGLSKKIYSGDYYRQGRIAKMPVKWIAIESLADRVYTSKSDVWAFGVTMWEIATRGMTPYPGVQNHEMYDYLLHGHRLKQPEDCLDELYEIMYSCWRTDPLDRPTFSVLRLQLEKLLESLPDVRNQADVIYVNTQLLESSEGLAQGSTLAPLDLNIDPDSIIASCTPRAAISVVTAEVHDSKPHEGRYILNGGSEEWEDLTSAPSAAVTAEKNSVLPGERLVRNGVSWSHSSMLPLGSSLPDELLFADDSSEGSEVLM
# Assay: as above
row,Sequence,phosphorylation enrichment
1,AKRKNYAPVAM [CFAP47_Y557],0.468
2,FLQTDDTSQVS [FRMPD1_Y846_Y846D],0.622
3,RYVTRYIYNRE [HLA-DQB1_Y62],0.773
4,TGEKLYQHKEF [ZNF283_Y627_R629H],0.397
5,DFLSSYSAVNQ [OAT_Y85],0.558
6,PLQKTYNYNVL [SLC4A1_Y553],0.43
7,SAEEDYMADAK [KCNT1_Y876],0.486
8,LKALKYKSMKI [ITGA11_Y1098],0.336
9,LINSVYGCSRQ [TMPRSS6_Y290_T287N],1.21
10,FPHVISARLWR [SMAD4_Y95_Y95S],0.458
11,ELTSVYGSRAR [SENP1_Y349_D350G],0.449
12,YEREQYADRTR [RBM4_Y355_A359T],0.448
13,QKFMAYPSQGG [HLCS_Y236_L237P],0.613
14,LVMFIYAIFGM [SCN1A_Y1684],1.13
15,DGQVNYEEFVQ [CALM1_Y139],0.487
16,GSQERYFELVE [TSC2_Y407],0.489
17,FFRNVYHLASV [RBL1_Y796_K794N_YF],0.404
18,TKDTFYKQRMF [GBA_Y451_P454R],0.372
19,HKETGYVVERP [BCLAF1_Y466_L461H],0.445
20,PTTKTYLPHFD [HBA1_Y43_F44L],0.494
21,YRDALYKSMVD [PHEX_Y250_F252S],0.4
22,GVIRHYVVCST [BTK_Y334],0.447
23,SIKGKYVTALF [KCNH2_Y611_D609G_YF],0.414
24,GLGGGYGGASG [KRT8_Y54],0.285
25,TKYVAYIESQG [KDM4B_Y34_N29T],0.331
26,NVTGHYIPPFH [PPA2_Y59_S61P],0.659
27,LKSEMYQKLFK [RGS13_Y146_L150F],0.7
28,GTTIHYNYMCN [TP53_Y234_C229G],0.585
29,TCRPPYYHRNC [HGD_Y333_F329C],0.235

# Target: Fyn (UniProt P06241)
# Sequence (P06241 whole entry, looked up): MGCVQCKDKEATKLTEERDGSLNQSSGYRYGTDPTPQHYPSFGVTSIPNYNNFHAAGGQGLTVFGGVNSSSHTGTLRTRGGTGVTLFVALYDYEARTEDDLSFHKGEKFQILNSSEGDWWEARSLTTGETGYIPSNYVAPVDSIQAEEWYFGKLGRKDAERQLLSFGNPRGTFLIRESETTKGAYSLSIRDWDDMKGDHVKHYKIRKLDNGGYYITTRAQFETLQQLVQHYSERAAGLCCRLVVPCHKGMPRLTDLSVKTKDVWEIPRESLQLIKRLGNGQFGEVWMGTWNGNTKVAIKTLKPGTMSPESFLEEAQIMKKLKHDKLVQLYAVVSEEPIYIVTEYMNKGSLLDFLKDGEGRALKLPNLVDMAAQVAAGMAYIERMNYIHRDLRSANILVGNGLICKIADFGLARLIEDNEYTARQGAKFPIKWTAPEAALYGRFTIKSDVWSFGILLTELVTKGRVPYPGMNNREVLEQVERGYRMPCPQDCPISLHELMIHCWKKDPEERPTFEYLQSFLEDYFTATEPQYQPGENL
# Assay: as above
row,Sequence,phosphorylation enrichment
1,AKRKNYAPVAM [CFAP47_Y557],0.393
2,FLQTDDTSQVS [FRMPD1_Y846_Y846D],0.481
3,RYVTRYIYNRE [HLA-DQB1_Y62],0.701
4,TGEKLYQHKEF [ZNF283_Y627_R629H],0.39
5,DFLSSYSAVNQ [OAT_Y85],0.427
6,PLQKTYNYNVL [SLC4A1_Y553],0.495
7,SAEEDYMADAK [KCNT1_Y876],0.652
8,LKALKYKSMKI [ITGA11_Y1098],0.641
9,LINSVYGCSRQ [TMPRSS6_Y290_T287N],3.32
10,FPHVISARLWR [SMAD4_Y95_Y95S],0.581
11,ELTSVYGSRAR [SENP1_Y349_D350G],1.97
12,YEREQYADRTR [RBM4_Y355_A359T],0.439
13,QKFMAYPSQGG [HLCS_Y236_L237P],0.388
14,LVMFIYAIFGM [SCN1A_Y1684],1.21
15,DGQVNYEEFVQ [CALM1_Y139],0.505
16,GSQERYFELVE [TSC2_Y407],0.462
17,FFRNVYHLASV [RBL1_Y796_K794N_YF],1.25
18,TKDTFYKQRMF [GBA_Y451_P454R],0.344
19,HKETGYVVERP [BCLAF1_Y466_L461H],0.497
20,PTTKTYLPHFD [HBA1_Y43_F44L],0.622
21,YRDALYKSMVD [PHEX_Y250_F252S],0.495
22,GVIRHYVVCST [BTK_Y334],0.535
23,SIKGKYVTALF [KCNH2_Y611_D609G_YF],0.406
24,GLGGGYGGASG [KRT8_Y54],0.344
25,TKYVAYIESQG [KDM4B_Y34_N29T],0.546
26,NVTGHYIPPFH [PPA2_Y59_S61P],0.445
27,LKSEMYQKLFK [RGS13_Y146_L150F],0.493
28,GTTIHYNYMCN [TP53_Y234_C229G],0.614
29,TCRPPYYHRNC [HGD_Y333_F329C],0.093
